The text below walks through data of publication PMC5053900 (The FEBS journal, 2016).

In general, Kd refers to the equilibrium constant for the complex coming apart. One may read the stoichiometry N as a count of units in the complex or per binding partner.

The chains are these.
B1: SAMP1, small ubiquitin-like archaeal modifier protein 1, purified (natural protein, Haloferax volcanii, UniProt D4GUF6 1-87, looked up)
chain: MEWKLFADLAEVAGSRTVRVDVDGDATVGDALDALVGAHPALESRVFGDDGELYDHINVLRNGEAAALGEATAAGDELALFPPVSGG
B2: SAMP2, small ubiquitin-like archaeal modifier protein 2, purified (natural protein, Haloferax volcanii, UniProt D4GZE7 1-66, looked up)
chain: MNVTVEVVGEETSEVAVDDDGTYADLVRAVDLSPHEVTVLVDGRPVPEDQSVEVDRVKVLRLIKGG
B3: UbaA, E1-like SAMP-activating enzyme of Haloferax volcanii, purified wild type (enzyme, UniProt D4GSF3 1-270, looked up)
chain: MTLSLDATQLDRYSRHIIMDEVGPEGQGRLLSSRVVVVGAGGLGAPAIQYLAAVGVGELVVVDDDVVERSNLQRQVVHCDDDVGTPKAESAAAFVRGLNPDVSVEPVEARVDKSNVHEVVAGSDVVVDASDNFPTRYLLNDVCRFEGIPLVHGAIYKFEGQATTLVPDGPCYRCLFPEAPEPGTVPDCATTGVLGVLPGTVGCIQATEAMKLLLDEGEALDGRLLFYDAMDMTFETVPYRTNPDCPVCGEGGVDSIEDIDYVESCAISLD
B4: UbaA C188A, purified (enzyme, Haloferax volcanii, UniProt D4GSF3 1-270, looked up)
chain: B3 chain with C188A
B5: UbaA D131N, purified (enzyme, Haloferax volcanii, UniProt D4GSF3 1-270, looked up)
chain: B3 chain with D131N
B6: UbaA K87R, purified (enzyme, Haloferax volcanii, UniProt D4GSF3 1-270, looked up)
chain: B3 chain with K87R

Substitutions are numbered along the chain they refer to. Names may count otherwise. Like-named read-outs stand apart in the source and are kept apart here.

In series [1] the target is B3. Nature of the series: ITC. For orientation: ITC needs no label: the signal is the heat of the interaction.
The target of series [2] is B3. Nature of the series: ITC. The source holds these as a separate data set.
In series [3] the target is B3. Nature of the series: ITC. This is another data set of the same source.
Series [4] concerns the target B3. Nature of the series: ITC. This is another data set of the same source.
The series “SEC” concerns the molecule itself. Kind of series: SEC. A general note: Size exclusion chromatography separates by hydrodynamic size, large species first.

In the case of B1, in series [1], the Ka was found to be 230000 M⁻¹; the affinity, expressed as Kd, was 4.4 µM; the dH was found to be 4.95 kcal/mol; the “stoichiometry N” value stood at 0.95. Also, in series [2], the Ka was determined as 590000 M⁻¹, binding was characterised by a dissociation constant (Kd) of 1.7 µM, the dH was 8.65 kcal/mol and the “stoichiometry N” value was determined as 0.95. Also, in series [3], the Ka was 850000 M⁻¹, the Kd is 1.2 µM, the dH came to 2.92 kcal/mol and the “stoichiometry N” value was 0.98. Also, in series [4], the Ka was 250000 M⁻¹, the Kd came out at 4.1 µM, the dH amounted to 3.82 kcal/mol and the “stoichiometry N” value came to 1.02.
Consider B2, for which, in series [3], the Ka is 230000 M⁻¹, the Kd came out at 4.3 µM, the dH is -16.5 kcal/mol and the “stoichiometry N” value was found to be 0.99.
Regarding B3, the “stoichiometry N” value in the series “SEC” is 2.
Same read-out and setting: next, B4: 2.
Still for that read-out and setting: with B5 the figure was 2; with B6, 2.
